According to patent US20210163923A1 (IONTAS, published 2021):

B1: 337_1_C08 (antibody, V domains shown)
VH: EVQLVQSGAEVKRPGASVTVSCKASGYTFTNHGISWVRQAPGQGLEWMGWNSPYNGNTNYAQRFQGRVTMTTDTSTNTAYMELRTLTSDDTAMYYCARDRDYYDAGSYWGQGTLVTVSS
VL: SYELTQPPSVSVSPGQTARITCSGDSLPKQYAYWYQQKPGQAPVLVIYKDSERPSGIPERFSGSGSGTTVTLTISGVQAEDEADYYCQSADSDNAFVFGRGTKLTVL
notes: Anti-PD1 antibody identified by phage display; also called anti-PD1 antibody 337_1_C08; 337_C08
B2: Ustekinumab (antibody, V domains shown)
VH: EVQLVQSGAEVKKPGESLKISCKGSGYSFTTYWLGWVRQMPGKGLDWIGIMSPVDSDIRYSPSFQGQVTMSVDKSITTAYLQWNSLKASDTAMYYCARRRPGQGYFDFWGQGTLVTVS
VL: DIQMTQSPSSLSASVGDRVTITCRASQGISSWLAWYQQKPEKAPKSLIYAASSLQSGVPSRFSGSGSGTDFTLTISSLQPEDFATYYCQQYNIYPYTFGQGTKLEIKR
notes: Anti-IL12 antibody; also called Ustenkinumab; Ustenikumab
B3: Emicizumab (bi-specific, displayed from pINT17-Bi-CMV-Emicizumab) (bispecific antibody, human IgG4 S228P)
light: DIQMTQSPSSLSASVGDRVTITCKASRNIERQLAWYQQKPGQAPELLIYQASRKESGVPDRFSGSRYGTDFTLTISSLQPEDIATYYCQQYSDPPLTFGGGTKVEIKRTAAAPSVFIFPPSDEQLKSGTASVVCLLNNFYPREAKVQWKVDNALQSGNSQESVTEQDSKDSTYSLSSTLTLSKADYEKHKVYACEVTHQGLSSPVTKSFNRGEC
heavy 1: QVQLVESGGGLVQPGGSLRLSCAASGFTFSYYDIQWVRQAPGKGLEWVSSISPSGQSTYYRREVKGRFTISRDNSKNTLYLQMNSLRAEDTAVYYCARRTGREYGGGWYFDYWGQGTLVTVSSASTKGPSVFPLAPCSRSTSESTAALGCLVKDYFPEPVTVSWNSGALTSGVHTFPAVLQSSGLYSLSSVVTVPSSSLGTQTYTCNVDHKPSNTKVDKRVESKYGPPCPPCPAPEFLGGPSVFLFPPKPKDTLMISRTPEVTCVVVDVSQEDPEVQFNWYVDGVEVHNAKTKPREEQYNSTYRVVSVLTVLHQDWLNGKEYKCKVSNKGLPSSIEKTISKAKGQPREPQVYTLPPSQKEMTKNQVSLTCLVKGFYPSDIAVEWESNGQPENNYKTTPPVLDSDGSFFLYSKLTVDKSRWQEGNVFSCSVMHEALHNRYTQKSLSLSPEQKLISEEDLNAVGQDTQEVIVVPHSLPFKVVVISAILALVVLTIISLIILIMLWQKKPR
heavy 2: QVQLVQSGSELKKPGASVKVSCKASGYTFTDNNMDWVRQAPGQGLEWMGDINTRSGGSIYNEEFQDRVIMTVDKSTDTAYMELSSLRSEDTATYHCARRKSYGYYLDEWGEGTLVTVSSASTKGPSVFPLAPCSRSTSESTAALGCLVKDYFPEPVTVSWNSGALTSGVHTFPAVLQSSGLYSLSSVVTVPSSSLGTQTYTCNVDHKPSNTKVDKRVESKYGPPCPPCPAPEFLGGPSVFLFPPKPKDTLMISRTPEVTCVVVDVSQEDPEVQFNWYVDGVEVHNAKTKPREEQYNSTYRVVSVLTVLHQDWLNGKEYKCKVSNKGLPSSIEKTISKAKGQPREPQVYTLPPSQEEMTKNQVSLTCLVKGFYPSDIAVEWESNGQPENNYKTTPPVLDSDGSFFLYSKLTVDKSRWQEGNVFSCSVMHEALHNHYTQESLSLSPEQKLISEEDLNAVGQDTQEVIVVPHSLPFKVVVISAILALVVLTIISLIILIMLWQKKPR
notes: also called bi-specific Emicizumab; knobs-into-holes common light chain IgG
B4: mono-specific anti-FIXa IgG (Emicizumab anti-FIXa VH with Emicizumab VL, pINT17-BSD-anti-FIXa) (antibody, V domains shown)
VH: QVQLVESGGGLVQPGGSLRLSCAASGFTFSYYDIQWVRQAPGKGLEWVSSISPSGQSTYYRREVKGRFTISRDNSKNTLYLQMNSLRAEDTAVYYCARRTGREYGGGWYFDYWGQGTLVTVSS
VL: DIQMTQSPSSLSASVGDRVTITCKASRNIERQLAWYQQKPGQAPELLIYQASRKESGVPDRFSGSRYGTDFTLTISSLQPEDIATYYCQQYSDPPLTFGGGTKVEIK
notes: also called mono-specific anti-FIXa arm in IgG format

How the values were obtained:
PD-1 = molecular target: T1, PD-1 (UniProt Q15116 25-167, biotinylated in the MACS experiments); test: surface plasmon resonance (SPR)
T1 construct: The catalogue number points to a human PD-1 reagent; also called biotinylated PD1 (PD1-H82E4, AcroBiosystems); PD-1-biotin
T1 sequence (Q15116 25-167 limits assumed): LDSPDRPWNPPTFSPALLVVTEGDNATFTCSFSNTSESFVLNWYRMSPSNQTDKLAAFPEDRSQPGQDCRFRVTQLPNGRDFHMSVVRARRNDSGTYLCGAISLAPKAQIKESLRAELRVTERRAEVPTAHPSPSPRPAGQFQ

[1] = molecular target: T2, unconjugated streptavidin-PE (UniProt P22629 37-163, limits assumed, phycoerythrin conjugate); test: flow cytometry of HEK293 cells displaying the IgG, stained with streptavidin PE alone
T2 construct: Control staining reagent; also called streptavidin-PE alone
T2 sequence (P22629 37-163 limits assumed): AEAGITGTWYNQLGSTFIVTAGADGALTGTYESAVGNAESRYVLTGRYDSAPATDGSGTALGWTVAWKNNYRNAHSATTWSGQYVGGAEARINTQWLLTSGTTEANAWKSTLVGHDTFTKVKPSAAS

[2] = molecular target: T2, unconjugated streptavidin-PE; test: flow cytometry of HEK293 cells 24 hours after transfection, stained with streptavidin-PE alone [panel Streptavidin PE]

Row | Binder | binding result [2] | also measured
1 | B1 | – | Kd (PD-1): 74 nM
2 | B2 | – | binding result [1]: no binding
3 | B3 | no binding | –
4 | B4 | no binding | –
